In patent US8247168B2, “Regulation of gene expression by protein methylation” (University of Southern California, priority 1998, dated 2012):
Marks after values point to notes of the source that are not given here.

Columns and labels:
[1] = tested on: androgen receptor, estrogen receptor, and thyroid hormone receptor; assay: Reporter gene activation by hormone-activated nuclear receptors in transiently transfected CV-1 cells; type: cell-based; conditions: co-expression of GRIP1 with NR, CV-1 cells, hormone present (lane d)
Method: (A) Transient transfection assays with CV-1 cells were performed as in FIG. 5 with 0.5 μg of GK1 reporter gene and 0.5 μg of each of the indicated vectors. (B) CV-1 cells were transiently transfected as in FIG. 5 with the following vectors, as indicated: 0.5 μg of nuclear receptor expression vector pSVAR0 (Brinkmann, A. O. et al. (1989) J. Steroid Biochem. Molec. Biol. 34:307) expressing AR, pHE0 (Green, S. et al. (1988) Nucleic Acids Res. 16:369) expressing ER, or pCMX.hTRβ1 (Feng, W. et al. (1998) Science 280:1747) expressing TR; 0.5 μg of a luciferase reporter gene with an appropriate promoter, MMTV promoter for AR, or MMTV promoter with the native glucocorticoid response elements replaced by a single estrogen response element for ER or palindromic thyroid hormone response element for TR (Umesono, K. and R. M. Evans (1989) Cell 57:1139); 0.5 μg of pSG5.HA-GRIP1; and 0.5 μg of pSG5.HA-CARM1 or pSG5.HA-CARM1 (VLD mutant). Transfection efficiency was monitored by using βgalactosidase activity expressed from 0.1 μg of co-transfected pCMV-βgal vector (Hong, H. et al. (1996) Proc. Natl. Acad. Sci. USA 93:4948-4952) as an internal control. After transfection, cells were grown in charcoal-treated serum; where indicated 20 nM hormone (H), i.e. dihydrotestosterone for AR, estradiol for ER, or triiodothyronine for TR, was included during the last 40 h of culture. […]

hnRNPA1 = assay: Methylation of hnRNP A1, SDS-PAGE and fluorography (FIG. 8C); type: biochemical, human; conditions: 0.083 mg/ml hnRNP-A1
Method: CARM1 and PRMT1 have different protein methyltransferase substrate specificities. CARM1 methylates histone H3, whereas PRMT1 methylates histone H4. […] (A,B) Calf thymus histones (Boehringer Mannheim) were incubated for 30 min at 30° C. in 32.5 μl reactions containing 20 mM Tris-Cl, 0.2 M NaCl, 4 mM EDTA, pH 8.0, 0.32 mg/ml individual histone (2a, 2b, 3, or 4) or 1.3 mg/ml mixed histone (M), 0.037 mg/ml GST-CARM1 or GST-PRMT1, and 7 μM S-adenosyl-L-[methyl-^3H]methionine (specific activity of 14.7 Ci/mmol). Reactions were stopped by addition of SDS-NuPAGE sample buffer (Novex), and 40% of each stopped reaction was then subjected to SDS-PAGE in 4-12% NuPAGE Bis-Tris gradient gels (Novex) using the Na-MES running buffer. Gels were stained with Coomassie Blue R-250 (A), and then subjected to fluorography (Chamberlin, M. (1978) Anal. Biochem. 98:132) for 12 h at −70° C. on sensitized Kodak XAR-5 film (B). Molecular weight markers (MW) are shown at left. Concentrations of GST fusion proteins were determined in comparison with bovine serum albumin standards (Sigma) by SDS polyacrylamide gel electrophoresis and Coomassie Blue staining; it was assumed that bovine serum albumin stained twice as intensely as most other proteins. Concentrations of histones and hnRNP A1 were determined by the method of Lowry (Lowry, O. H. et al. (1951) J. Biol. Chem. 193:265). […]

[2] = biological target: T1, K1 peptide SEQ ID NO: 5 […]-NH2 (Mus musculus, UniProt Q9WVG6, W314R); assay: Methyltransferase reaction with K1 peptide substrate, reversed-phase HPLC separation; type: biochemical; conditions: substrate K1 peptide (120 μM); enzyme 0.03-0.05 mg/ml
T1 construct: A 3.2-kb partial CARM1 cDNA clone with an open reading frame of 606 amino acids (CARM1(3-608)); made in house; host or cells: E. coli strain BL21
T1 sequence (Q9WVG6 3-608 W314R): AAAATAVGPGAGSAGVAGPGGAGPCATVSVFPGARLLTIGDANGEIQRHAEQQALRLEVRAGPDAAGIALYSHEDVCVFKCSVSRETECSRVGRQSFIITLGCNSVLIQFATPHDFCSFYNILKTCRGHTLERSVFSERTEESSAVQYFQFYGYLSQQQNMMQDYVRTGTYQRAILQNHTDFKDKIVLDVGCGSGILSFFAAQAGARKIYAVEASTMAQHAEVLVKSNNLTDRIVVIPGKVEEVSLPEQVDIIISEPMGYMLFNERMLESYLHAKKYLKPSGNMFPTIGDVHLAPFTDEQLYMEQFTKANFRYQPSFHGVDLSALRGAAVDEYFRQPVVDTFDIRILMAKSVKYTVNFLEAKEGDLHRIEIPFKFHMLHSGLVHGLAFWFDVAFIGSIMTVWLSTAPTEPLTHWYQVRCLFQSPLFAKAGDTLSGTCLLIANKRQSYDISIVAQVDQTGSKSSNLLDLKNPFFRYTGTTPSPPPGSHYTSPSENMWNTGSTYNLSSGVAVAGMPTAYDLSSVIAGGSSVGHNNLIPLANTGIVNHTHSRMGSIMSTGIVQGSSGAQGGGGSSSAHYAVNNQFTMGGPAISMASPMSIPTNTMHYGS

[3] = tested on: mixed histones (calf thymus); assay: Methyltransferase reaction with mixed histones, reversed-phase HPLC separation; type: biochemical; conditions: substrate mixed histones (2.7 mg/ml), enzyme 0.03-0.05 mg/ml
[4] = tested on: R1 peptide SEQ ID NO: 4 […]-NH2; assay: Methyltransferase reaction with R1 peptide substrate, reversed-phase HPLC separation; type: biochemical; conditions: substrate R1 peptide (120 μM); enzyme 0.03-0.05 mg/ml

GRIP1: p160 nuclear receptor coactivator
enhancement of reporter gene expression by the hormone-activated NR [1]: 2 to 27 fold

PRMT1: related mammalian protein arginine methyltransferase [reference compound]
methylation of hnRNPA1 (hnRNPA1): good substrate

B1: GST-CARM1: glutathione S-transferase fusion protein of CARM1 produced in E. coli (protein)
chain: T1 sequence (Q9WVG6 3-608 W314R)
modifications: left off: a dimerising Fc or GST
notes: glutathione S-transferase fusion protein of CARM1 produced in E. coli
Methyltransferase specific activity [2]: 0.7 pmol/min/mg
Methyltransferase specific activity [3]: 971 pmol/min/mg
Methyltransferase specific activity [4]: 21.6-54.5^a pmol/min/mg
